These results are taken from article doi:10.1101/2020.03.03.974444.

The experiment deals with myc-tagged human Patched-1 (Ptch1-1B-myc) (human) (UniProt Q13635). Description: co-IP.
Chain of UniProt Q13635 (Q13635 whole entry): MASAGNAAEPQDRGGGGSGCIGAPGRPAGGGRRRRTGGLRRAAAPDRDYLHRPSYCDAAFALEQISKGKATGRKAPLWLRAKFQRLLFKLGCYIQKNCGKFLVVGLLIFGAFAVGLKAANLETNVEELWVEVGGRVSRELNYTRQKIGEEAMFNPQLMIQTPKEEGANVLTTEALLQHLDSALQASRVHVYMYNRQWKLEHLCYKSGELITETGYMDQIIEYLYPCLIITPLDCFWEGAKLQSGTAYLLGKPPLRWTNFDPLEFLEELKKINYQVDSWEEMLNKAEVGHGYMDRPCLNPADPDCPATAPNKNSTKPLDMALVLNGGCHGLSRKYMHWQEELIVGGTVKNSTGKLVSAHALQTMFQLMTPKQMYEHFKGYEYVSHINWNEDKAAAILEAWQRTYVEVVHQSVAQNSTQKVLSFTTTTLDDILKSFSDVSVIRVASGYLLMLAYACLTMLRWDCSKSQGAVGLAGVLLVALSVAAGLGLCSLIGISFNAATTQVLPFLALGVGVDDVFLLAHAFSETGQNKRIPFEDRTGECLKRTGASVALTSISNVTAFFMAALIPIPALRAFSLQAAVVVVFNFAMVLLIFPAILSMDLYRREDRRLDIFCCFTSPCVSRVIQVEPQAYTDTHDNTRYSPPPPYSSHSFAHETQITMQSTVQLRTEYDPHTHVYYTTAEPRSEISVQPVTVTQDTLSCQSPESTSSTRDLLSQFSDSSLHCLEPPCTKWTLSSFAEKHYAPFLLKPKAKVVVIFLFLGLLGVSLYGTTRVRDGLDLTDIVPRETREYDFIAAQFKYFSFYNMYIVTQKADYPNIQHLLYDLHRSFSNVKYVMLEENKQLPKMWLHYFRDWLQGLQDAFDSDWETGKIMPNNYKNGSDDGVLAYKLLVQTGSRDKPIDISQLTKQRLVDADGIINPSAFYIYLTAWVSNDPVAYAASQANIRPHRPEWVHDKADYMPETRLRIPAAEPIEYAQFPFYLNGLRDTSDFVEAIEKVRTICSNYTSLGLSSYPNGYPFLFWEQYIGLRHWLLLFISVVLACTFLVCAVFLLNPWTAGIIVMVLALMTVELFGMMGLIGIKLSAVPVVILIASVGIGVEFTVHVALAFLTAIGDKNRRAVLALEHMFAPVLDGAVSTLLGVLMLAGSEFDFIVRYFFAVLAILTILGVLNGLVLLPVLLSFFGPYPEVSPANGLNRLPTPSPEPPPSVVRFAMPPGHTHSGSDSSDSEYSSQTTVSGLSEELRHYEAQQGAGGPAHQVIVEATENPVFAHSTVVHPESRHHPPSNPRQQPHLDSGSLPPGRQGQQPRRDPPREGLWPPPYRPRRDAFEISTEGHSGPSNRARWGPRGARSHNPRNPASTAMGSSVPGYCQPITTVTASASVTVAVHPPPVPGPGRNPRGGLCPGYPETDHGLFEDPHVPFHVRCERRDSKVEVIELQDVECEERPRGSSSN

“N-terminal Sonic Hedgehog (N-Shh) (from UniProt Q62226 25-437) (domain or fragment)”: the percent reduction of FL-Dhh binding to Ptch1 was in the range of 70 to 80%.
